The target of the assay is ryanodine receptors (rat (endogenous in rat ventricular myocytes)) (UniProt B0LPN4). The assay is described as follows: fluorescence wash-in and wash-out in permeabilized myocytes.
UniProt B0LPN4, sequence (B0LPN4 whole entry): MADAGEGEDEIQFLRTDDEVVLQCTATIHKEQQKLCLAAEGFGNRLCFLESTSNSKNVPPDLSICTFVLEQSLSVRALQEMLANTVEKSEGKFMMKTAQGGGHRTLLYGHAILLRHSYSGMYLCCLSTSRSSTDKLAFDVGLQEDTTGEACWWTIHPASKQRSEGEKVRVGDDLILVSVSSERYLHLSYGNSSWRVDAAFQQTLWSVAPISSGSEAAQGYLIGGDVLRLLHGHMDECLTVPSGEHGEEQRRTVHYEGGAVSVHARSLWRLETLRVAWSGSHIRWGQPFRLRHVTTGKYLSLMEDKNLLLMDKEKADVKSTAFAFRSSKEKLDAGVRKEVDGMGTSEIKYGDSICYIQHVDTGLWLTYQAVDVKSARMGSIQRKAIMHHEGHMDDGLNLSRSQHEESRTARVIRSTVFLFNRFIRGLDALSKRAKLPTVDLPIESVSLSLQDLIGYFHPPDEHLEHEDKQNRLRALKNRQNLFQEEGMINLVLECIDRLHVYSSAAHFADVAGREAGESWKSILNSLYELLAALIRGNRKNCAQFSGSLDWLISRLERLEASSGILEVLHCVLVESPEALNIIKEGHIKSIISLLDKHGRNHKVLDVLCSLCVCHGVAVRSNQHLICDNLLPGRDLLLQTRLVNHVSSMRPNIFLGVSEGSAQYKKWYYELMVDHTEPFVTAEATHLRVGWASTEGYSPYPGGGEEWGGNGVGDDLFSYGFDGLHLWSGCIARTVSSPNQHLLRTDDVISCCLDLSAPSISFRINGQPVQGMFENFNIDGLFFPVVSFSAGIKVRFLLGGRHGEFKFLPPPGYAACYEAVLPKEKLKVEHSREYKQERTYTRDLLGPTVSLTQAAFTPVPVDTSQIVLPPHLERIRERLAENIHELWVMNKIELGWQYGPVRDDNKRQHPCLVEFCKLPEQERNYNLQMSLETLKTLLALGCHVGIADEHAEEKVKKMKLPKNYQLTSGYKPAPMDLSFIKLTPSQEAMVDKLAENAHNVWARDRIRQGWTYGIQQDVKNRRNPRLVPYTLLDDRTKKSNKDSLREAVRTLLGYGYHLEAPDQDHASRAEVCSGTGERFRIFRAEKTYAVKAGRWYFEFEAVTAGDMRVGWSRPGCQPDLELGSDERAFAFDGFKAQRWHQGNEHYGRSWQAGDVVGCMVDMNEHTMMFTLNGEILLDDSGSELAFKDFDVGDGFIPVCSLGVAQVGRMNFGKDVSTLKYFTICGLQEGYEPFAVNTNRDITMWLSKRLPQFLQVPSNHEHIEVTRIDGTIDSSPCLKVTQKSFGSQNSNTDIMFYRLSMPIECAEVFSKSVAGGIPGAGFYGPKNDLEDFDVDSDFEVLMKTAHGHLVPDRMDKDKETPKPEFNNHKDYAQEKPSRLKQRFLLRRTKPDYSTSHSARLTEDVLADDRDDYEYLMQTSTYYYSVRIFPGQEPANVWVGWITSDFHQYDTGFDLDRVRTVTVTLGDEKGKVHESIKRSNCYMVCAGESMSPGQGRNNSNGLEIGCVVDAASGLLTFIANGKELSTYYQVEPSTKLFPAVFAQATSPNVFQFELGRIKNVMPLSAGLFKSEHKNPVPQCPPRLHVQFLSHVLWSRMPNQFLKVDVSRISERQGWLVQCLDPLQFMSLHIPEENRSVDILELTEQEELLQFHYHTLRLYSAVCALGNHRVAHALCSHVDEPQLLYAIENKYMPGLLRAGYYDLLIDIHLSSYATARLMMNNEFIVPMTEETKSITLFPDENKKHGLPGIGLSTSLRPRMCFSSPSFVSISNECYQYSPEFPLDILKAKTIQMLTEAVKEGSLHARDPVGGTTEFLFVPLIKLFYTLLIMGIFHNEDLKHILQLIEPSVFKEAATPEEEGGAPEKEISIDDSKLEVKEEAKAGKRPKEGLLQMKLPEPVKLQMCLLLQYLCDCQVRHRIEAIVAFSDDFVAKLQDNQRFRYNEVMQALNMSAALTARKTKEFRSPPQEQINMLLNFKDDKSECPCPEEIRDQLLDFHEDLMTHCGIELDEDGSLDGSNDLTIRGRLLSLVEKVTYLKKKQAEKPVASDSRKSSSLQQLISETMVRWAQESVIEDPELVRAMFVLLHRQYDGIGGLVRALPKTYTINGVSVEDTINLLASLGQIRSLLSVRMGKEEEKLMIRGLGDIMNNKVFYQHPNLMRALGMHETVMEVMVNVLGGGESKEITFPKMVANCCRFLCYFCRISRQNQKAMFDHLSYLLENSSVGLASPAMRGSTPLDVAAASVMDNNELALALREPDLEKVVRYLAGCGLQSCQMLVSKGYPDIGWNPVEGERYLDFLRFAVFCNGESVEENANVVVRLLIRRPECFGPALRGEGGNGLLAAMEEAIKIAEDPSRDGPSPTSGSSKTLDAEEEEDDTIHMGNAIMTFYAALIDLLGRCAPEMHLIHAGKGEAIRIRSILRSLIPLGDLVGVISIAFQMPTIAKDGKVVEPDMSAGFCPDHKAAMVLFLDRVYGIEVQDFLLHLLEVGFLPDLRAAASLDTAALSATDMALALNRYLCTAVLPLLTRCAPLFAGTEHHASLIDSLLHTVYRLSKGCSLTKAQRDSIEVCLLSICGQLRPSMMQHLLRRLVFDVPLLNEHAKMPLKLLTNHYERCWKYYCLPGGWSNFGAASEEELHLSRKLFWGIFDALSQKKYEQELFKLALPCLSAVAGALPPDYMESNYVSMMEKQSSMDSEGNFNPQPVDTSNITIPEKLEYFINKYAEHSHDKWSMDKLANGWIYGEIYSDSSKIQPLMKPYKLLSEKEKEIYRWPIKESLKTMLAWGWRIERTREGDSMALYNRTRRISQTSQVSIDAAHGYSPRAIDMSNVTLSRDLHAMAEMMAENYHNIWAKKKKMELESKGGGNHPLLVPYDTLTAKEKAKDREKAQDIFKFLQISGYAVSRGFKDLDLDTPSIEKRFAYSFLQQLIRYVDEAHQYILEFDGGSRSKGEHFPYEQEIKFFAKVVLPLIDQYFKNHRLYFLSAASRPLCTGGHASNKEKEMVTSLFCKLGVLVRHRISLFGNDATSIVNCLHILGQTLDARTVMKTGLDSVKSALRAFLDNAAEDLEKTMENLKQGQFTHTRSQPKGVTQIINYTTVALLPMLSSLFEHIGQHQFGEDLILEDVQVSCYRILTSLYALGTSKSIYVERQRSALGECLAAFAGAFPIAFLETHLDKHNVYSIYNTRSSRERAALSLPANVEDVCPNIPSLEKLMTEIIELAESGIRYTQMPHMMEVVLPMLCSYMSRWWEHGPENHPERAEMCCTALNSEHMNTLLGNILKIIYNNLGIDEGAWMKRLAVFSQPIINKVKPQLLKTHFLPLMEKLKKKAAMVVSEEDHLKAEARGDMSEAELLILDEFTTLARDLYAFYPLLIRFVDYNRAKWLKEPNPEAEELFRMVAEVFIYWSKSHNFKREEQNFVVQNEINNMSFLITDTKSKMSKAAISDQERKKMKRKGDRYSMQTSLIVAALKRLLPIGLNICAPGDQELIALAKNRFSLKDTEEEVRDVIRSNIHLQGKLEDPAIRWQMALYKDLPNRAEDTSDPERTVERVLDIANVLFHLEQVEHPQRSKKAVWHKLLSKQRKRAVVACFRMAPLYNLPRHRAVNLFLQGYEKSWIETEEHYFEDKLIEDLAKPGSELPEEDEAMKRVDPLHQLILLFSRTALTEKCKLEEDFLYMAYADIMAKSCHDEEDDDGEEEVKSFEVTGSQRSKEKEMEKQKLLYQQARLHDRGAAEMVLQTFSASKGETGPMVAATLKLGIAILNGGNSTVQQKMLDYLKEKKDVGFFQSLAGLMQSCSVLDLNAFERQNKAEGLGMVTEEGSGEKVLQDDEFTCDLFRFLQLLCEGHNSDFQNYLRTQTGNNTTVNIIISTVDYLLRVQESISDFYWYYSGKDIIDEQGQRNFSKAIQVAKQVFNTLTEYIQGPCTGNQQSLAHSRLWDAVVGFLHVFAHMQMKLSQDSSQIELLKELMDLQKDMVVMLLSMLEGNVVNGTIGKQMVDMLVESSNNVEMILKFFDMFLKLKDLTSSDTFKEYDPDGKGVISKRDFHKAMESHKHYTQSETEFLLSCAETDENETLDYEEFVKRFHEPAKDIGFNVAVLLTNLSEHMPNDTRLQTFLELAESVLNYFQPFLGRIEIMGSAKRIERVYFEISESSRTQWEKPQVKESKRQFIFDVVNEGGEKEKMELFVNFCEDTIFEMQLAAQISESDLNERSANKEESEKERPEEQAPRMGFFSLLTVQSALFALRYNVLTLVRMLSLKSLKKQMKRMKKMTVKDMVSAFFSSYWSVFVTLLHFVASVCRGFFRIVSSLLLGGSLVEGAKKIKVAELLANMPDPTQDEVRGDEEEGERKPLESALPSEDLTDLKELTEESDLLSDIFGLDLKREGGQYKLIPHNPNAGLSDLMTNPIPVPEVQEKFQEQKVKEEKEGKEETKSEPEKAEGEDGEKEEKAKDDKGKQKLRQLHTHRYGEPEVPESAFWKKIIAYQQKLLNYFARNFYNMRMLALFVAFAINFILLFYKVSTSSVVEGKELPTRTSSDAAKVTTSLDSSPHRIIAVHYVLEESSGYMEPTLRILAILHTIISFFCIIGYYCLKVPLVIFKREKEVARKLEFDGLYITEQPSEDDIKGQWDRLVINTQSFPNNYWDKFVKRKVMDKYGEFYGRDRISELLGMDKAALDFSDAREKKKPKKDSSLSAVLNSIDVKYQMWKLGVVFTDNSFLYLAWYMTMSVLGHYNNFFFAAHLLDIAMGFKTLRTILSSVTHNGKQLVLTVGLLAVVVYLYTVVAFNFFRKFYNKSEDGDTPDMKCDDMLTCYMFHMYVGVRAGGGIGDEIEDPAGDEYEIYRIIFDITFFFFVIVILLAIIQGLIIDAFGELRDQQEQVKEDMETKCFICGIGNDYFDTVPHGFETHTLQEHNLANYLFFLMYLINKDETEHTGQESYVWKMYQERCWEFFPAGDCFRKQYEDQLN

In the case of GCaMP2.2-FKBP12.6, the dissociation constant Kd – broadly, a measure of binding affinity in units of concentration – came to 15.5 nM. As for GCaMP2.2Low-FKBP12.6, the figure is 43.8 nM.

Values taken from publication PMC4132890.
